# Measured values: US20160237160A1, “ANTI-TWEAKR ANTIBODIES AND USES THEREOF” (BAYER PHARMA AKTIENGESELLSCHAFT, priority 2013, published 2016)
# Marks after values point to notes of the source that are not given here.
# B1: TWEAK: endogenous TWEAKR ligand; E. coli derived recombinant soluble human TWEAK, Arg93-His249 (R&D #1090-TW-025/CF) (protein, UniProt O43508 93-249, looked up, fragment)
# chain: RSAPKGRKTRARRAIAAHYEVHPRPGQDGAQAGVDGTVSGWEEARINSSSPLRYNRQIGEFIVTRAGLYYLYCQVHFDEGKAVYLKLDLLVDGVLALRCLEEFSATAASSLGPQLRLCQVSGLLALRPGSSLRIRTLPWAHLKAAPFLTYFGLFQVH
# Columns and labels:
# TWEAKR = TWEAKR (Homo sapiens, UniProt Q9NP84); settings: published data; read-out: KD / binding affinity to TWEAKR (published); cited from earlier work
# Lovo cells = assay: Inhibition of proliferation (Cell Titer Glo); assay type: cell-based, human; settings: 72h, 100 μg/ml antibody or *100 ng/ml TWEAK
# Method: (§1) Therefore cells were plated in 96well plates in 750 assay medium (growth media from Table 21, plus 100 ng/ml IFN gamma for 786-O cells) at the following cell numbers: WiDr cells 3000 cells/well, 786-O cells 2500 cells/well. 24 h later cells were incubated with anti-TWEAKR antibodies (see Table 26), recombinant human TWEAK or isotype control IgG (not shown) at the indicated concentrations (antibodies from 0.03-300 μg/ml, TWEAK 100 or 300 ng/ml). At the time of antibody addition cell viability was determined in sister plates (time point zero): therefore 750/well CTG solution (Promega Cell Titer Glo solution (catalog # G755B and G756B) was added to the cells, incubated for 10 minutes and luminescence was read on a Victor V (Perkin Elmer). 96 h after incubation with the agents, cell viability was determined in the assay plates by addition of 100 μl/well CTG solution, 10 min incubation and reading of luminescence. Proliferation in control wells was calculated by subtracting time zero values from the luminescence values in the untreated control wells. % of cell proliferation was calculated in the compound treated wells as compared to the untreated control wells.
# (§2) To evaluate, whether this strong anti-proliferative activity can also be observed in a broader cell panel, in addition LOVO, NCI-H1975, SW-480 (all 3000 cells/well), HT-29 (4000 cells/well), A253 and SK-OV3 (both 2500 cells/well) cells were incubated with 100 μg/ml anti-TWEAKR antibodies or TWEAK ligand for the time periods as indicated in Table 27. All cells were seeded in the growth media indicated in Table 21 and for all cells except for WiDr cells 100 ng/ml IFNgamma was added to the assay medium when seeding the cells. The percentage of growth inhibition for treated cells as compared to proliferation in untreated control cells was measured and calculated as described above. As shown in Table 27 the antibodies of the current invention are more efficacious as compared to other known antibodies in inhibiting proliferation of various cancer cell lines at 100 μg/ml. In most experiments the antibodies of the current invention also show equal or stronger efficacy as compared to 100-300 ng/ml TWEAK ligand. Thus, the antibodies described in this invention are unique in their activity to induce apoptosis and proliferation inhibition in a broad panel of cancer cell lines.
# SW480 cells = assay: Inhibition of proliferation (Cell Titer Glo); assay type: cell-based, human; settings: 72h, 100 μg/ml antibody or *100 ng/ml TWEAK
# Method: as §1, §2
# HT-29 cells [1] = assay: Inhibition of proliferation (Cell Titer Glo); assay type: cell-based, human; settings: 24h, 100 μg/ml antibody or **300 ng/ml TWEAK
# Method: as §1, §2
# A253 cells [2] = assay: Inhibition of proliferation (Cell Titer Glo); assay type: cell-based, human; settings: 72h, 100 μg/ml antibody or **300 ng/ml TWEAK
# Method: as §1, §2
# 786-O cells [3] = assay: Inhibition of proliferation (Cell Titer Glo); assay type: cell-based, human; settings: 96h, 100 μg/ml antibody or *100 ng/ml TWEAK
# Method: as §1, §2
# NCI-H1975 cells = assay: Inhibition of proliferation (Cell Titer Glo); assay type: cell-based, human; settings: 72h, 100 μg/ml antibody or *100 ng/ml TWEAK
# Method: as §1, §2
# A253 cells [4] = assay: Caspase 3/7 activation; assay type: cell-based, human; settings: 100 μg/ml antibody or 300 ng/ml TWEAK, 24 h, IFN gamma
# Method: (§3) To determine the level of apoptosis induction, Caspase-3/7 activation was measured after treatment of cancer cells with TWEAK or agonistic anti-TWEAKR antibodies. Therefore HT-29 cells were plated at a density of 4000 cells/75 μl/well in 96 well plates in assay medium (DMEM/Ham's F12, Biochrom #FG4815+10% FCS+100 ng/ml IFN gamma (R&D Systems #285-IF)). 24 h later cells were incubated with antibodies to the TWEAKR (see Table 24), recombinant human TWEAK (R&D, #1090-TW-025/CF, E. coli derived recombinant soluble human TWEAK, Arg93-His249 of accession # Q4ACW9, Entrez Gene ID 8742, with an N-terminal Met and 6-His tag) or corresponding isotype control IgG at various concentrations as indicated. After 24 h incubation with the antibodies, Caspase 3/7 activity was determined by adding 100 μl/well Caspase 3/7 Solution (Promega, #G8093) to the cells, incubation for one hour and reading of luminescence on a VICTOR V (Perkin Elmer).
# (§4) To determine whether the strong efficacy of the antibodies of the invention also holds true in other cell lines than HT-29, the capacity to induce Caspase 3/7 by anti-TWEAKR antibodies as compared to recombinant human TWEAK was evaluated in a panel of cell lines. For this analysis the following conditions were used: WiDr cells were plated at 3000 cells/well and incubated for 48 h in the presence of TWEAK or the described antibodies, A253 cells were plated at 2500 cells/well and incubated for 24 h, NCI-H322 cells were plated at 5000 cells/well and incubated for 48 h and 786-O cells were plated at 2500 cells/well and incubated for 48 h. The cells were plated in the media as described in Table 21, for A253, NCI-H322 and 786-O cells 100 ng/ml IFN gamma (R&D Systems #285-IF) was added. 24 h after plating antibodies at 100 μg/ml or TWEAK at 300 ng/ml (100 ng/ml TWEAK for NCI-H322 cells) were added and the cells were further incubated for the time periods indicated above. At the end of the incubation time Caspase 3/7 activity was determined as described for HT-29 cells. The fold induction of Caspase 3/7 was calculated as compared to untreated cells.
# WiDr cells = assay: Caspase 3/7 activation; assay type: cell-based, human; settings: 100 μg/ml antibody or 300 ng/ml TWEAK, 48 h
# Method: as §3, §4
# 786-O cells [5] = assay: Caspase 3/7 activation; assay type: cell-based, human; settings: 100 μg/ml antibody or 300 ng/ml TWEAK, 48 h, IFN gamma
# Method: as §3, §4
# NCI-H322 cells = assay: Caspase 3/7 activation; assay type: cell-based, human; settings: 100 μg/ml antibody or *100 ng/ml TWEAK, 48 h, IFN gamma
# Method: as §3, §4
# HT-29 cells [6] = assay: Caspase 3/7 activation; assay type: cell-based, human; settings: 100 μg/ml antibody or 300 ng/ml TWEAK, 24 h, IFN gamma
# Method: as §3
molecule,measurement,setting,value
B1,Kd,TWEAKR,0.8 to 2.4 nM
same,% Inhibition of proliferation,Lovo cells,53%*
same,% Inhibition of proliferation,SW480 cells,0%*
same,% Inhibition of proliferation,HT-29 cells [1],98%**
same,% Inhibition of proliferation,A253 cells [2],>100%**
same,% Inhibition of proliferation,786-O cells [3],12%*
same,% Inhibition of proliferation,NCI-H1975 cells,56%*
same,Fold induction of Caspase 3/7,A253 cells [4],1.53 ± 0.13
same,Fold induction of Caspase 3/7,WiDr cells,1.22 ± 0.02
same,Fold induction of Caspase 3/7,786-O cells [5],1.45 ± 0.05
same,Fold induction of Caspase 3/7,NCI-H322 cells,1.39 ± 0.01
same,Fold induction of Caspase 3/7,HT-29 cells [6],2.31 ± 0.29
